The values that follow come from PMC7212079.

The test concerns the target Hsp32. The test is described as follows: native MS.

Regarding Hsp32 (natural protein), the stoichiometry N was found to be 2.

By stoichiometry N is commonly meant a count of units in the complex or per binding partner.
